According to patent US8063181B2, “Method for the production of cyclic molecules” (ZYRUS Beteiligungsgesellschaft mbH & Co. Patent I KG, priority 2003, dated 2011):

Legend:
[1] = substrate: CCC(C)[C@H](NC(=O)[C@H](Cc1ccc(O)cc1)NC(=O)[C@@H](CCC(N)=O)NC(=O)[C@@H]1CCCN1C(=O)[C@@H](C)NC(=O)[C@@H](CCC(=O)O)NC(=O)[C@H](NC(=O)[C@H](Cc1ccc(O)cc1)NC(=O)[C@H](CCCN)NC(=O)[C@H](CCC(=O)O)NC(C)=O)C(C)O)C(=O)Sc1ccccc1; assay: cyclization kinetics with fengycin-peptide cyclase; format: biochemical; settings: other: cyclization reaction, Lineweaver-Burk plot, 25 mM HEPES, 50 mM NaCl, pH 7, room temperature
Procedure: The purified substrate with the leaving group according to the present invention is then incubated with the respective peptide cyclase in the ratio of 1 (enzyme): 100 (substrate) in 25 mM HEPES, 50 mM NaCl at pH 7 and room temperature for 30-60 minutes. The production of the HEPES solution is known to persons skilled in the art and was described in J. Sambrook, E. F. Fritsch and T. Maniatis: Molecular Cloning: A Laboratory Manual Vol. I-III, Cold Spring Harbor Laboratory Press, 1982. The identification and quantification of the reaction product is carried out by means of analytical HPLC.
The cyclization of the linear fengycin-thiophenol substrate is carried out in an aqueous cyclization buffer comprised of 2-[4-(2-hydroxyethyl)-1-piperazinyl]-ethane sulfonic acid (HEPES, 25 mM) and sodium chloride (NaCl, 50 mM) at pH 7 in a total volume of 50 μL. The substrate concentration is 100 μM for standard cyclization reactions. The cyclization reaction is initiated by the addition of recombinant fengycin TE at an end concentration of 5 μM and stopped by the addition of 35 μL of 4% trifluoroacetic acid (TFA) in water after 4 hours. […]
With this measurement, the linear range for further kinetic studies is determined. […]

[2] = substrate: CC(C)C[C@H](NC(=O)[C@@H](CC(=O)O)NC(=O)[C@H](NC(=O)[C@H](CN)NC(=O)[C@@H](CC(C)C)NC(=O)[C@@H](CCC(=O)O)NC(=O)CC(C)O)C(C)C)C(=O)N[C@H](CC(C)C)C(=O)Sc1ccccc1; assay: cyclization kinetics with surfactin-peptide cyclase; format: biochemical; settings: other: cyclization reaction; pH 7.0; 40.0 °C
Procedure: […] The production of the HEPES solution is known to persons skilled in the art and was described in J. Sambrook, E. F. Fritsch and T. Maniatis: Molecular Cloning: A Laboratory Manual Vol. I-III, Cold Spring Harbor Laboratory Press, 1982. The identification and quantification of the reaction product is carried out by means of analytical HPLC.
With this measurement, the linear range for further kinetic studies is determined. The reactions are stopped by the addition of 35 μL TFA (4% in water) and examined by analytic HPLC with a Nucleodur C18 column (Macherey and Nagel, 250/3, pore diameter: 100 Å, particle size: 3 μm) with the following gradient: 0-35 min, 30-60% acetonitrile/0.1% TFA in water/0.1% TFA; 0.4 mL/min, 40° C. Kinetic examinations are carried out at different points in time at substrate concentrations of 50 μM up to 1000 μm and the kinetic parameters KM and kcat are taken from the Lineweaver-Burk plot. For fengycin-thiophenol, a KM of 461 μm and a kcat of 0.33 min^−1 result from the cyclization reaction.
In the case of surfactin-peptide cyclase, kinetic reference data with a SNAC-substrate exists. In the case of surfactin-thiophenol, a KM of 126 μm and a kcat of 5.6 min^−1 are determined for the cyclization reaction, which corresponds to a kcat/KM value of 0.04 μm^−1 min^−1. Compared with that is the kinetic efficiency of surfactin-SNAC, represented by the kcat/KM value 0.0029 μm^−1 min^−1, 14 times less than with surfactin-thiophenol.

B1: recombinated fengycin-peptide cyclase (Bacillus subtilis subsp. subtilis str. 168) (protein)
chain: QNLFCFPPISGFGIYFKDLALLLNEKAAVYGFHFIEQDTRIEQYVNCMTDIQPEGPYVLLGYSAGGNLAFEVAQAMERKGLEVSDFIIVDAYLKEQPLPIDTGNDESAAYLPEAVREKVMKKKRNYQEYWAQLLNEGHIKASIHFIEAGIHPETSGHTGLTKWEGACGNYSEYTGFGAHKDMLEGTYAEKNADIILDILEKITSNQ
notes: recombinant fengycin TE
[1]
  Km: 461 µM
  kcat: 0.0055 s⁻¹

B2: surfactin-peptide cyclase (Bacillus subtilis subsp. subtilis str. 168) (protein)
chain: QIIFAFPPVLGYGLMYQNLSSRLPSYKLCAFDFIEEEDRLDRYADLIQKLQPEGPLTLFGYSAGCSLAFEAAKKLEEQGRIVQRIIMVDSYKKQGVSDLDGRTVESDVEALMNVNRDNEALNSEAVKHGLKQKTHAFYSYYVNLISTGQVKADIDLLTSGADFDMPEWLASWEEATTGVYRVKRGFGTHAEMLQGETLDRNAEILLEFLNTQT
notes: purified, isolated thioesterase domains or peptide cyclases from NRPS or PKS systems
[2]
  Km: 126 µM
  kcat: 0.0933 s⁻¹
  kcat/Km: 0.04 μm^−1 min^−1
